Data: article PMC10533412 (2023)

Tests used:
BTN3A1 B30.2 domain = BTN3A1 B30.2 domain (human, UniProt O00481 328-513); assay: ITC; with HMBPP
BTN3A1 B30.2 = BTN3A1 B30.2 (Homo sapiens, UniProt O00481); assay: ITC
BTN3A3 B30.2 = BTN3A3 B30.2 (Homo sapiens, UniProt O00478); assay: ITC
BTN3A3 B30.2, sequence (O00478 319-521): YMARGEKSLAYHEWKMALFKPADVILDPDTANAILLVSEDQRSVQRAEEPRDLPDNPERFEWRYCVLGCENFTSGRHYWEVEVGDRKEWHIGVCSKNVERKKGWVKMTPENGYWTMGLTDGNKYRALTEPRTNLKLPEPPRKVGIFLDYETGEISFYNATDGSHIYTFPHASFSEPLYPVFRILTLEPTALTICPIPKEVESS

BTN3A1 B30.2, sequence (O00481 319-513): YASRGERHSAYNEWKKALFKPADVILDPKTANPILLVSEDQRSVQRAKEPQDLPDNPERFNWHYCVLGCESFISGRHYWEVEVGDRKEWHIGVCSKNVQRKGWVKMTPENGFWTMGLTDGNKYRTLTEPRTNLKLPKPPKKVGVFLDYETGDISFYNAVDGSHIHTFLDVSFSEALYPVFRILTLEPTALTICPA
BTN3A1 B30.2 domain, sequence (O00481 other isoform, or with tags, fused parts or gaps): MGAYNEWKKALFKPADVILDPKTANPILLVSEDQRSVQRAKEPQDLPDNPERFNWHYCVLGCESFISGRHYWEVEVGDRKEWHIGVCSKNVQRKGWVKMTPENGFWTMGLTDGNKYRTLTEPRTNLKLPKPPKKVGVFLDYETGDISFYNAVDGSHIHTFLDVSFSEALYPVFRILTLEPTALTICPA

B1: BTN2A1 B30.2 domain (domain or fragment)
chain: EELRWRRTFLHAVDVVLDPDTAHPDLFLSEDRRSVRRCPFRHLGESVPDNPERFDSQPCVLGRESFASGKHYWEVEVENVIEWTVGVCRDSVERKGEVLLIPQNGFWTLEMHKGQYRAVSSPDRILPLKESLCRVGVFLDYEAGDVSFYNMRDRSHIYTCPRSAFSVPVRPFFRLGCEDSPIFICPALTGANGVTVPEEGLTLHRVGTHQSL
modifications: limits from PDB 5ZXK/8JYE entity without the C-terminal LEHHHHHH; paper number minus 295 = entity position
**Q.** B1 was tested. Which Kd (BTN3A1 B30.2 domain) did it give?
**A.** The Kd was 600 nM.

B2: BTN2A1 B30.2 (protein)
chain: ELQVKEKLQEELRWRRTFLHAVDVVLDPDTAHPDLFLSEDRRSVRRCPFRHLGESVPDNPERFDSQPCVLGRESFASGKHYWEVEVENVIEWTVGVCRDSVERKGEVLLIPQNGFWTLEMHKGQYRAVSSPDRILPLKESLCRVGVFLDYEAGDVSFYNMRDRSHIYTCPRSAFSVPVRPFFRLGCEDSPIFICPALTGANGV
modifications: DMAPP
**Q.** With B2 as the binder, how does the Kd (BTN3A1 B30.2) read?
**A.** Its Kd is 12300 nM.

B3: BTN2A1 B30.2 (protein)
chain: ELQVKEKLQEELRWRRTFLHAVDVVLDPDTAHPDLFLSEDRRSVRRCPFRHLGESVPDNPERFDSQPCVLGRESFASGKHYWEVEVENVIEWTVGVCRDSVERKGEVLLIPQNGFWTLEMHKGQYRAVSSPDRILPLKESLCRVGVFLDYEAGDVSFYNMRDRSHIYTCPRSAFSVPVRPFFRLGCEDSPIFICPALTGANGV
modifications: HMBPP
**Q.** For B3, which Kd (BTN3A1 B30.2) is on record?
**A.** Its Kd is 611 nM.

B4: BTN2A1 B30.2 (protein)
chain: ELQVKEKLQEELRWRRTFLHAVDVVLDPDTAHPDLFLSEDRRSVRRCPFRHLGESVPDNPERFDSQPCVLGRESFASGKHYWEVEVENVIEWTVGVCRDSVERKGEVLLIPQNGFWTLEMHKGQYRAVSSPDRILPLKESLCRVGVFLDYEAGDVSFYNMRDRSHIYTCPRSAFSVPVRPFFRLGCEDSPIFICPALTGANGV
modifications: IPP
**Q.** How did the Kd (BTN3A1 B30.2) turn out when B4 was run?
**A.** The Kd was 155000 nM.

B5: BTN2A1 B30.2 (protein)
chain: ELQVKEKLQEELRWRRTFLHAVDVVLDPDTAHPDLFLSEDRRSVHRCPFRHLGESVPDNPERFDSQPCVLGRESFASGKHYWEVEVENVIEWTVGVCRDSVERKGEVLLIPQNGFWTLEMHKGQYRAVSSPDRILPLKESLCRVGVFLDYEAGDVSFYNMRDRSHIYTCPRSAFSVPVRPFFRLGCEDSPIFICPALTGANGV
**Q.** B5 was tested. Which Kd (BTN3A3 B30.2) did it give?
**A.** The Kd was 460 nM.
